Molecular target: T1, His-DUB3 (UniProt Q6R6M4 1-530)
T1 construct: deubiquitinase DUB3 (USP17L2) cloned into pET30a; also called USP17L2; source: E. coli BL21, purified
T1 sequence (looked up): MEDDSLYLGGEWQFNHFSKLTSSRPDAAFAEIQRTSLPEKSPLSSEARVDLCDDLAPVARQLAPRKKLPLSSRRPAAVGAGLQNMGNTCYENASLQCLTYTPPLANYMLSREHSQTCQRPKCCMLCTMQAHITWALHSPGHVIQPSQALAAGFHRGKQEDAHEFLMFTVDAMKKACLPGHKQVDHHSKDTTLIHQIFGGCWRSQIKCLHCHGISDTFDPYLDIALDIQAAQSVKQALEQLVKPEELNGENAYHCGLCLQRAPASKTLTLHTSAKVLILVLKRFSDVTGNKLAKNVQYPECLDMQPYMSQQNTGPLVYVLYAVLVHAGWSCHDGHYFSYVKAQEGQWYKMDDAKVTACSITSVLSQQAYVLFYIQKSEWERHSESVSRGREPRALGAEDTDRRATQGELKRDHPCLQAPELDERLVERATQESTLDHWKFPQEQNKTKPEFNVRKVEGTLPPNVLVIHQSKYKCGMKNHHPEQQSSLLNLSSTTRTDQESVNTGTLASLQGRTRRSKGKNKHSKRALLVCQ
Assay: pull-down; GST or GST-fusion protein on Pierce Glutathione agarose, incubated with purified His-tagged protein at 4 °C for 2 h; four washes; immunoblotting
Settings: both partners purified

- binding result: binds
B1: GST-CK2α (Casein kinase II alpha, catalytic subunit) (enzyme, UniProt P68400 1-391, looked up)
chain: MSGPVPSRARVYTDVNTHRPREYWDYESHVVEWGNQDDYQLVRKLGRGKYSEVFEAINITNNEKVVVKILKPVKKKKIKREIKILENLRGGPNIITLADIVKDPVSRTPALVFEHVNNTDFKQLYQTLTDYDIRFYMYEILKALDYCHSMGIMHRDVKPHNVMIDHEHRKLRLIDWGLAEFYHPGQEYNVRVASRYFKGPELLVDYQMYDYSLDMWSLGCMLASMIFRKEPFFHGHDNYDQLVRIAKVLGTEDLYDYIDKYNIELDPRFNDILGRHSRKRWERFVHSENQHLVSPEALDFLDKLLRYDHQSRLTAREAMEHPYFYTVVKDQARMGSSSMPGGSTPVSSANMMSGISSVPTPSPLGPLAGSPVIAAANPLGMPVPAAAGAQQ
notes: Casein kinase II alpha (CK2α), catalytic subunit of CK2, cloned into pGEX4T-1; source: E. coli BL21, IPTG induced, pulled down on Pierce Glutathione agarose
